We go through 1 molecule from patent US20220010003A1 (Boehringer Ingelheim, published 2022).

Experiment [1] has as its target T1, recombinant rat periostin (rat, UniProt A0A8I6AHK0 24-838).
T1 construct: also called RatPOSTN
The experiment can be described thus: BLI (Octet Red), NB0828 captured on anti-human Fc (AHC) biosensors, periostin titrated from 100 nM. As for the experimental part:
(§1) NB0828's binding affinity was determined across human, mouse, rat, and cyno species. NB0828 affinities were determined using the octet red system. Briefly, anti-human Fc (AHC) biosensors were used to capture NB0828, followed by association of titrating amounts of either recombinant human, mouse, rat, or cyno periostin (100 nM→0 nM; 1:2 dilutions). Recombinant human, mouse, and rat periostin was purchased commercially from R&D systems, whereas cyno periostin was made internally.
For orientation: BLI is a label-free optical method that tracks binding on a fibre tip over time.

Experiment [2] has as its target T2, recombinant mouse periostin (mouse, UniProt Q62009-2 24-811, limits assumed).
T2 construct: also called MoPOSTN
T2 sequence (looked up): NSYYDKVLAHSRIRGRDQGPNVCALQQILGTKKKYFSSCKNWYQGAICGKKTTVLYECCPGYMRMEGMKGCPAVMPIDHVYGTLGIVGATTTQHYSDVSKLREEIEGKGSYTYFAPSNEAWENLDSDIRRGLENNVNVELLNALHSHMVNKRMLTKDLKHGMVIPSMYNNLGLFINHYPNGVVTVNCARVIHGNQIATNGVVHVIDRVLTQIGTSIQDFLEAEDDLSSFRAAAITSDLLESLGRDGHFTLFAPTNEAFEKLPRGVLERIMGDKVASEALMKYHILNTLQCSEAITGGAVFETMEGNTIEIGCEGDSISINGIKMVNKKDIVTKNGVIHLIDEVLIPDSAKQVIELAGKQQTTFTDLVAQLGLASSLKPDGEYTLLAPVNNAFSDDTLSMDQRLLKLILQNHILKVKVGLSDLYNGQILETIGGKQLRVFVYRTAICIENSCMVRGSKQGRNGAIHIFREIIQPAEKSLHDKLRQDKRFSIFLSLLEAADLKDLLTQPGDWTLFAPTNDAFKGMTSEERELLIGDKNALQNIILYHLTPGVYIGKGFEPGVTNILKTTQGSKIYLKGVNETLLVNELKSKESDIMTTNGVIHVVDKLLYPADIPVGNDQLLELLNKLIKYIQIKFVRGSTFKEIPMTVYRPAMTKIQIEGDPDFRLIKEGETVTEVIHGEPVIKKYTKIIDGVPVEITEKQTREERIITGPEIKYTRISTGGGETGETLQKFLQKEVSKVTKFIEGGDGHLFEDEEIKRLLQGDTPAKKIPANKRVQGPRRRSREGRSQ
Described as above. As for the experimental part:
as §1

B1: NB0828 (antibody, V domains shown)
VH: QVQLVQSGAEVKKPGASVKVSCKASGYTFTSYGISWVRQAPGQGLEWMGWISAYNGNTNYAQKLQGRVTMTTDTSTSTAYMELRSLRSDDTAVYYCARDMLVVPFDYWGQGTLVTVSS
VL: QSVLTQSSSASGTPGQTVTVSCSGSSSDIGSNRVNWYQQLPGTAPKLLIYSNDQRPSGVPDRFSGSKSGTSASLAISGLQSADEADYYCAAWDDSLSTYVFGSGTKVTVL
The term Kd denotes the equilibrium constant for the complex coming apart. A word on the koff: it is a measure of how fast the partners let go of each other. By kon is commonly meant the second-order rate constant of association. With B1, in experiment [1], the Kd amounted to 0.54 nM, the koff amounted to 0.000393 s⁻¹ and the kon came to 727000 M⁻¹ s⁻¹. In experiment [2], the Kd stood at 0.114 nM, the dissociation rate constant (koff) turned out to be 7.64e-05 s⁻¹ and the kon turned out to be 670000 M⁻¹ s⁻¹.
